Reference: patent US8198236B2, “Methods and compositions for the treatment of cancer” (Washington University, priority 2007, dated 2012)

Key:
[1] = target: T1, LRP6 (Homo sapiens, UniProt O75581); experiment: LRP6-mediated 125I-Mesd degradation in LRP6-transduced HT1080 cells; assay type: cell-based; details: 4 hours at 37° C.
T1 construct: expressed in transfected cells; host or cells: human HT1080 cells, retroviral vector pLNCX2
Procedure: Ligand degradation was performed using the methods as described in Li, Y., et al., J. Biol. Chem. 275: 17187-17194, 2000. Briefly, 2×10^5 cells were seeded into 12-well dishes 1 day prior to assay. Pre-warmed assay buffer (minimal Eagle's medium containing 0.6% BSA with radioligand, 0.6 ml/well) was added to cell monolayers in the absence or the presence of unlabeled 500 nM RAP or 500 nM Mesd, followed by incubation for 4 hours at 37° C. Thereafter, the medium overlying the cell monolayers was removed and proteins were precipitated by addition of BSA to 10 mg/ml and trichloroacetic acid to 20%. Degradation of radioligand was defined as the appearance of radioactive fragments in the overlying medium that were soluble in 20% trichloroacetic acid. Kinetic analysis of endocytosis LRP6-transduced HT1080 cells were plated in 12-well plates at a density of 2×10^5 cells/well and used after overnight culture. Cells were rinsed twice in ice-cold assay buffer (minimal Eagle's medium containing 0.6% BSA), and ^125I-anti-HA IgG was added at 1 nM final concentration in cold assay buffer (0.5 ml/well). The binding of ^125I-anti-HA IgG was carried out at 4° C. for 90 minutes with gentle rocking Unbound ^125I-anti-HA IgG was removed by washing cell monolayers three times with cold assay buffer. Ice-cold stop/strip solution (0.2 M acetic acid, pH 2.6, 0.1 M NaCl) was added to one set of plates without warming up and kept on ice. The remaining plates were then placed in a 37° C. water bath and 0.5 ml assay buffer prewarmed to 37° C. was quickly added to cell monolayers to initiate internalization. After each time point, the plates were quickly placed on ice and the assay buffer was replaced with cold stop/strip solution. ^125I-anti-HA IgG that remained on the cell surface was stripped by incubation of cell monolayers with cold stop/strip solution for a total of 20 minutes (0.75 ml for 10 minutes, twice) and counted. Cell monolayers were then solubilized with low-SDS lysis buffer and counted. […] The fraction of internalized ^125I-anti-HA IgG after each time point was calculated and plotted. […]

[2] = target: T1, LRP6; experiment: LRP6-mediated 125I-DKK1 degradation in LRP6-transduced HT1080 cells; assay type: cell-based; details: 500 nM unlabeled, 4 hours at 37° C.
Procedure: Ligand degradation was performed using the methods as described in Li, Y., et al., J. Biol. Chem. 275: 17187-17194, 2000. Briefly, 2×10^5 cells were seeded into 12-well dishes 1 day prior to assay. Pre-warmed assay buffer (minimal Eagle's medium containing 0.6% BSA with radioligand, 0.6 ml/well) was added to cell monolayers in the absence or the presence of unlabeled 500 nM RAP or 500 nM Mesd, followed by incubation for 4 hours at 37° C. Thereafter, the medium overlying the cell monolayers was removed and proteins were precipitated by addition of BSA to 10 mg/ml and trichloroacetic acid to 20%. […] After each time point, the plates were quickly placed on ice and the assay buffer was replaced with cold stop/strip solution. ^125I-anti-HA IgG that remained on the cell surface was stripped by incubation of cell monolayers with cold stop/strip solution for a total of 20 minutes (0.75 ml for 10 minutes, twice) and counted. Cell monolayers were then solubilized with low-SDS lysis buffer and counted. […] The fraction of internalized ^125I-anti-HA IgG after each time point was calculated and plotted.
RAP is a receptor antagonist for members of the LDLR family, and is able to inhibit the binding of most known ligands of the LDLR family members. […] Cell-surface-bound Myc-tagged DKK proteins were fixed and detected by immunofluorescence staining with anti-Myc antibody. […]

[3] = Mesd in serum after a single i.p. dose (Western blot quantification); assay type: in vivo, mice
Procedure: In experiments shown in FIG. 23, pharmacokinetics of Mesd peptide and Mesd were examined. FIG. 23A: Amount of Mesd in serum following a single dose of protein administration. Mice were dosed at 5, 10, 20 mg/kg of Mesd via i.p. and the serum samples were collected from individual mice at the indicated time points. The levels of Mesd in serum were quantified by comparison to Mesd pure protein with known concentrations in Western blot analysis. Values are the average of triple determinations with S.D. indicated by error bars. […] Samples were obtained by terminal bleed under anesthesia at each of the indicated time points (N=3 animals per time point). Radioactivity was measured using a gamma counter and DPM converted to mass units/mL blood using the specific activity (DPM/mass) of each test substance. Data are plotted as mass U/mL of test substance with standard deviation indicated by error bars.

[4] = Side effects on non-tumor tissues of treated mice (H&E staining, x-ray, weight)
Procedure: Hemotoxylin and eosin (H&E) staining was performed on tumor xenograft tissue, skin and intestine harvested at the end of Mesd treatment.
FIG. 24D: H&E staining of tail vertebrae treated with PBS, Mesd or Mesd peptide.

T1 sequence (O75581 20-1613): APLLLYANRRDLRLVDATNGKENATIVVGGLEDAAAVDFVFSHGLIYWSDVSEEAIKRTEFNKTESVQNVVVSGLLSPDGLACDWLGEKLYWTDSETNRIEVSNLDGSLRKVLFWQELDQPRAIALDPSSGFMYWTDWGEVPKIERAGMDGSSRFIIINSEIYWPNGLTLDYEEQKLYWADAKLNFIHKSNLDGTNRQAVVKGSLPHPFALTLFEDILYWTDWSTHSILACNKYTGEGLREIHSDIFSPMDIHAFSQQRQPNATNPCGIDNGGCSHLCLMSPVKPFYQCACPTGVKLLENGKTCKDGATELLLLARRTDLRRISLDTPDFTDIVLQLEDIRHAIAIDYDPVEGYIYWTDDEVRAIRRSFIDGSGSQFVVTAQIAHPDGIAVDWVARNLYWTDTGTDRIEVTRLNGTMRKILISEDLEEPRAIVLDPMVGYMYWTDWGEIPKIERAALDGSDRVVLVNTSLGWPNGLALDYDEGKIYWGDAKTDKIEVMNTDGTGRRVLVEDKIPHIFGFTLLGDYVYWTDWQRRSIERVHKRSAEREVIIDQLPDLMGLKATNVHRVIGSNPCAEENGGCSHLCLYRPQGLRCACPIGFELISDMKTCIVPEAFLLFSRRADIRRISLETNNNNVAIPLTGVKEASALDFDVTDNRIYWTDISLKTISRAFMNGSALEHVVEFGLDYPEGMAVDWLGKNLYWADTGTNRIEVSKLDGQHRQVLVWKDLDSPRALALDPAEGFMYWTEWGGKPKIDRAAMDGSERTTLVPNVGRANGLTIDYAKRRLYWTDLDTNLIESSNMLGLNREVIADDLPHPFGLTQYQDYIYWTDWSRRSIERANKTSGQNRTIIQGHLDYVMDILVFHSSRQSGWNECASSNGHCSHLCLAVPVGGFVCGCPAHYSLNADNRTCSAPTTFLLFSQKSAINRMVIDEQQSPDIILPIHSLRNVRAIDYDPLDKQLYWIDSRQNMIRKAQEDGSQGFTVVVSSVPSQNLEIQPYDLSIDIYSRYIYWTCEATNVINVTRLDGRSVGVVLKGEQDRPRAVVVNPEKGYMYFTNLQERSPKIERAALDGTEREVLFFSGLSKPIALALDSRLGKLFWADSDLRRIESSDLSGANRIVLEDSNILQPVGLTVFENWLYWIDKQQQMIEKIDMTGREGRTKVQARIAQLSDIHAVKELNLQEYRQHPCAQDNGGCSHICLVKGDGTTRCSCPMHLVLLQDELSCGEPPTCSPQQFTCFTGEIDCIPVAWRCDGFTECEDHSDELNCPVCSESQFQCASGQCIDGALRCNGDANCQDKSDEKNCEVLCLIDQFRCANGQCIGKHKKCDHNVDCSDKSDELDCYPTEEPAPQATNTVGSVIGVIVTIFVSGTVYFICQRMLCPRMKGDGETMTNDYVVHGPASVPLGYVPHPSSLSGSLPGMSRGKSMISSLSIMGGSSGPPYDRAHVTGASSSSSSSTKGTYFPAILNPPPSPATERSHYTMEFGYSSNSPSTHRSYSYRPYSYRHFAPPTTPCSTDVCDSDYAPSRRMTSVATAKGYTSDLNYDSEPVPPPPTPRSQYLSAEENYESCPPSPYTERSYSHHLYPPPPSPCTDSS

B1: Mesd: Recombinant full-length mouse Mesd expressed in E. coli, N-terminal polyhistidine tail, lacking the signal peptide (protein)
chain: ADTPGEATPPPRKKKDIRDYNDADMARLLEQWEKDDDIEEGDLPEHKRPSAPIDFSKLDPGKPESILKMTKKGKTLMMFVTVSGNPTEKETEEITSLWQGSLFNANYDVQRFIVGSDRAIFMLRDGSYAWEIKDFLVSQDRCAEVTLEGQMYPGKGGGSKEKNKTKPEKAKKKEGDRKPRASKEDNRAGSRREDL
modifications: left off: small tags and cut ends
notes: Recombinant full-length mouse Mesd expressed in E. coli, N-terminal polyhistidine tail, lacking the signal peptide
- 125I-Mesd degradation ([1]; 5 nM): 320 fmoles/mg cell protein
- Inhibition of 125I-Mesd degradation ([1]; 500 nM unlabeled competitor): completely
- Effect on increased 125I-DKK1 degradation of LRP6-expressing HT1080 cells [2]: abolished
- Absorption after dosing [3]: rapidly absorbed
- Adverse effect on small intestine (gross examination) ([4]; FIG. 17E): no significant adverse effect
- Architecture of gastrointestinal compartments and skin (H&E) ([4]; after 10 treatments): morphologically normal
- Bone lesions or outgrowths in tail vertebrae ([4]; conditions in which antitumor efficacy was achieved): no significant bone lesions or outgrowths
- General health and body weight of treated mice ([4]; mouse, in vivo): grossly healthy and maintain their weights
